Patent US20180186873A1 (CEPHALON, published 2018)
Positions count from the first letter of the chain named.

B1: 3A5.040 (antibody, human IgG4 S228P, lambda)
heavy: not shown
light: SYVLTQPPSVSVAPGQTARITCGGNNIGSKNVYWYQQKPGQAPVLVVHDDSDRPSGIPERFSGSNSGNTATLTISRVEVGDEADYSCQVWDSSSDHVVFGGGTKLTVLGQPKAAPSVTLFPPSSEELQANKATLVCLISDFYPGAVTVAWKADSSPVKAGVETTTPSKQSNNKYAASSYLSLTPEQWKSHRSYSCQVTHEGSTVEKTVAPTECS
B2: 3A5.481 (antibody, human IgG4 S228P, lambda, name in Kabat numbering, V domains shown)
VH: QVQLQESGPGLVKPSQTLSLTCTVSGGSISNGGYYWSWIRQHPGKGLEWIGYIYYSGSTYYNPSLKSRVTISVDTSKNQFSLKLSSVTAADTAVYYCSSLGNWFDYWGQGTLVTVSS
VL: SYVLTQPPSVSVAPGQTARITCGGNNIGSKNVYWYQQKPGQAPVLVVHDDSDRPSGIPERFSGSNSGNTATLTISRVEVGDEADYSCQVWDSSSDHVVFGGGTKLTVLG
B3: 3A5.495 (antibody, human IgG4 S228P, lambda, name in Kabat numbering, V domains shown)
VH: B2 VH with S98A, S99K
VL: B2 VL
B4: 3A5.491 (antibody, human IgG4 S228P, lambda, name in Kabat numbering, V domains shown)
VH: B2 VH with S98A, S99L
VL: B2 VL
B5: 3A5.490 (antibody, human IgG4 S228P, lambda, name in Kabat numbering, V domains shown)
VH: B2 VH with S98A, S99A
VL: B2 VL
B6: 3A5.485 (antibody, human IgG4 S228P, lambda, name in Kabat numbering, V domains shown)
VH: B2 VH with S98Q
VL: B2 VL
B7: 3A5.482 (antibody, human IgG4 S228P, lambda, name in Kabat numbering, V domains shown)
VH: B2 VH with S98L
VL: B2 VL
B8: 3A5.498 (antibody, human IgG4 S228P, lambda, name in Kabat numbering, V domains shown)
VH: B2 VH with S98A, S99P
VL: B2 VL
B9: 3A5.496 (antibody, human IgG4 S228P, lambda, name in Kabat numbering, V domains shown)
VH: B2 VH with S98A, S99H
VL: B2 VL
B10: 3A5.492 (antibody, human IgG4 S228P, lambda, name in Kabat numbering, V domains shown)
VH: B2 VH with S98A, S99Y
VL: B2 VL
B11: 3A5.494 (antibody, human IgG4 S228P, lambda, name in Kabat numbering, V domains shown)
VH: B2 VH with S98A, S99Q
VL: B2 VL
B12: 3A5.497 (antibody, human IgG4 S228P, lambda, name in Kabat numbering, V domains shown)
VH: B2 VH with S98A, S99W
VL: B2 VL

Columns and labels:
recombinant human IL-5 [1] = target: T1, recombinant human IL-5 (human, UniProt P05113 20-134); assay: SPR, Ab supernatant on Protein A chip, IL-5 analyte, run 3.2, average of 5
recombinant human IL-5 [2] = target: T1, recombinant human IL-5; assay: SPR, purified Ab on Protein A chip, IL-5 analyte, run 3.2
recombinant human IL-5 [3] = target: recombinant human IL-5 (human, UniProt P05113 20-134); assay: Biacore SPR, Ab supernatant on Protein A chip
recombinant human IL-5 [4] = target: recombinant human IL-5 (human, UniProt P05113 20-134); assay: SPR

| Binder | % 3A5.040 kd (recombinant human IL-5 [3]) | Kd (recombinant human IL-5 [3]) | also measured |
| --- | --- | --- | --- |
| B1 |  |  | Kd (recombinant human IL-5 [1]): 0.131 nM; koff (recombinant human IL-5 [1]): 9.07e-05 s⁻¹; kon (recombinant human IL-5 [1]): 695000 M⁻¹ s⁻¹; Kd (recombinant human IL-5 [2]): 0.116 nM; koff (recombinant human IL-5 [2]): 8.25e-05 s⁻¹; kon (recombinant human IL-5 [2]): 712000 M⁻¹ s⁻¹ |
| B2 | 112% | 0.13 nM |  |
| B3 |  |  | % 3A5.040 kd (recombinant human IL-5 [4]): 34%; Kd (recombinant human IL-5 [4]): 0.431 nM |
| B4 | 13% | 1.52 nM |  |
| B5 |  | 0.128 nM |  |
| B6 | 105% | 0.154 nM |  |
| B7 | 52% | 0.79 nM |  |
| B8 |  |  | % 3A5.040 kd (recombinant human IL-5 [4]): 85%; Kd (recombinant human IL-5 [4]): 0.263 nM |
| B9 | 2% | 2.11 nM |  |
| B10 | 10% | 3.37 nM |  |
| B11 | 16% | 0.945 nM |  |
| B12 |  |  | % 3A5.040 kd (recombinant human IL-5 [4]): 3%; Kd (recombinant human IL-5 [4]): 1.75 nM |
